Results on one variant are retold here after IntAct's records for PubMed 12540855.

B1: Histone-lysine N-methyltransferase SETD7 (Homo sapiens), Q8WTS6 (parent)
chain: MDSDDEMVEEAVEGHLDDDGLPHGFCTVTYSSTDRFEGNFVHGEKNGRGKFFFFDGSTLEGYYVDDALQGQGVYTYEDGGVLQGTYVDGELNGPAQEYDTDGRLIFKGQYKDNIRHGVCWIYYPDGGSLVGEVNEDGEMTGEKIAYVYPDERTALYGKFIDGEMIEGKLATLMSTEEGRPHFELMPGNSVYHFDKSTSSCISTNALLPDPYESERVYVAESLISSAGEGLFSKVAVGPNTVMSFYNGVRITHQEVDSRDWALNGNTLSLDEETVIDVPEPYNHVSKYCASLGHKANHSFTPNCIYDMFVHPRFGPIKCIRTLRAVEADEELTVAYGYDHSPPGKSGPEAPEWYQVELKAFQATQQK

In this assay the parent is B1. The following applies: with h31_human H3C1, P68431.
Turning to Y245A, the “effect of a mutation on the interaction” value was “decreasing interaction”.
